These results are taken from PMC9502102, “Thrombin Determination Using Graphene Oxide Sensors with Co-Assisted Amplification”.

This data set addresses thrombin (UniProt P00734;P00734 328-363;364-622). The data set can be described thus: fluorescence recovery (FAM-TBA released from GO/capture DNA); FAM-TBA with capture DNA on PEG-blocked GO; thrombin 0.0025-15 nM; sensor LOD is not a Kd; GO 5 ug/mL, 10 nM FAM-DNA, 30 min incubation (covalent sensor); PBS listed in materials, PBS vs water compared in Fig. S6; pH, salt and temperature not in the m.

B1: Thrombin binding aptamer (TBA) (ssDNA)
DNA: AAAAGTCCGTGGTAGGGCAGGTTGGGGTGACT
Consider B1, for which the binding result is listed as “binds”.
